Test results reported in patent US9260500B2, “Peptide and use thereof” (Takeda Pharmaceutical Company Limited, priority 2009, dated 2016).
Non-standard residues stand in square brackets, D forms with d. *: point of attachment. X1 = ((1S)-1-carboxy-2-(4-hydroxyphenyl)ethyl)carbamoyl, O=C(O)[C@H](Cc1ccc(O)cc1)NC(=O)*; X4 = ((1S)-1-Carboxy-3-methylbutyl)carbamoyl, CC(C)C[C@H](NC(=O)*)C(=O)O; Tetrahydropyran4carbonyl = O=C(C1CCOCC1)*; Imidazole4carbonyl = O=C(c1cnc[nH]1)*; tBuAla = CC(C)(C)C[C@H](N)C(=O)O; αMeF = C[C@](N)(Cc1ccccc1)C(=O)O; 4Pal = N[C@@H](Cc1ccncc1)C(=O)O; dHyp = O=C(O)[C@H]1C[C@H](O)CN1; Cha = N[C@@H](CC1CCCCC1)C(=O)O; Isonicotinoyl = O=C(c1ccncc1)*; Iva = CC[C@](C)(N)C(=O)O; Abu = CC[C@H](N)C(=O)O; Aib = CC(C)(N)C(=O)O

Columns and labels:
male C57EL/6J mice = assay: 3-Days Continuous Subcutaneous Administration Test-1 (food intake suppressing activity); assay type: in vivo, mouse; conditions: 0.03 mg/kg/day, subcutaneous Alzet pump, food consumption over 3 days; relative to food intake suppression rate for PYY(3-36) (1 mg/kg/day) taken as 100%
In short: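 Male […] mice, 12-13 weeks, received compound at 0.03 mg/kg/day by subcutaneous osmotic pump (50% DMSO vehicle), housed singly with free food access. Food consumed over 3 days measured; suppression expressed relative to PYY(3-36) (1 mg/kg/day) set as 100%.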

human Y2 receptor [1] = target: T1, human Y2 receptor (Homo sapiens, UniProt P49146); assay: Receptor Binding Assay (RBA) for Human Y2, [125I]-PYY displacement on hY2R/CHO membrane fraction; conditions: IC50 of test compound/IC50 of PYY(3-36) (PYY(3-36) taken as 1)
T1 construct: expressed in transfected cells; membrane fraction
T1 sequence (P49146 1-381): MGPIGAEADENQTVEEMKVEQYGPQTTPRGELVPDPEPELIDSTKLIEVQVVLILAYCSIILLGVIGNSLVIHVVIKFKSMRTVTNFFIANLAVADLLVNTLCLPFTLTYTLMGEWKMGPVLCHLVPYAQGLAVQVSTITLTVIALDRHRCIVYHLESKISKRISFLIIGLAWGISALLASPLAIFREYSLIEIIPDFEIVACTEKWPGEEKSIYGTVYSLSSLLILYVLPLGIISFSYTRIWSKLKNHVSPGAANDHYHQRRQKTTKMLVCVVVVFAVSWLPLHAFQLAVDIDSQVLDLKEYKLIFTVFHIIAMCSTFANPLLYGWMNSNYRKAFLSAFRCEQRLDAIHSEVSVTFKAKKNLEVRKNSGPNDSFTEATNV
In short: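 hY2R stably expressed in CHO/dhfr− cells; membrane fraction prepared from cells disrupted in 10 mM NaHCO3, 5 mM EDTA buffer with protease inhibitors. Binding read as displacement of [125I]-PYY.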

human Y2 receptor [2] = target: T1, human Y2 receptor; assay: Human Y2 Receptor G Protein Binding Assay (GBA), [35S]GTPγS; assay type: biochemical; conditions: EC50 of test compound/EC50 of PYY(3-36) (PYY3-36 taken as 1), hY2R/CHO membrane fraction
In short: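 Agonism measured as [35S]GTPγS binding, read by GF/C filtration and scintillation counting after 120 min at room temperature, using human Y2 membranes at 1 μg protein/mL in pH 7.4 Tris/MgCl2/NaCl/GDP buffer. Compound serially diluted 100 μM–1 nM; EC50 normalized to PYY(3-36) (ratio = compound/PYY).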

| Substance | food intake suppression rate (%) (male C57EL/6J mice) | RBA IC50 Ratio (human Y2 receptor [1]) | GBA EC50 Ratio (human Y2 receptor [2]) |
| --- | --- | --- | --- |
| 4-Imidazolecarbonyl-[D-Hyp24, Iva25, Pya(4)26, Cha27,36, αMePhe28, Lys30, Aib31]-PYY(23-36) (Imidazole4carbonyl-S[dHyp][Iva][4Pal][Cha][αMeF]NK[Aib]TRQR[Cha]-NH2; SMILES CC[C@](C)(NC(=O)[C@H]1C[C@H](O)CN1C(=O)[C@H](CO)NC(=O)c1cnc[nH]1)C(=O)N[C@@H](Cc1ccncc1)C(=O)N[C@@H](CC1CCCCC1)C(=O)N[C@@](C)(Cc1ccccc1)C(=O)N[C@@H](CC(N)=O)C(=O)N[C@@H](CCCCN)C(=O)NC(C)(C)C(=O)N[C@H](C(=O)N[C@@H](CCCNC(=N)N)C(=O)N[C@@H](CCC(N)=O)C(=O)N[C@@H](CCCNC(=N)N)C(=O)N[C@@H](CC1CCCCC1)C(N)=O)[C@@H](C)O) [compound No. 343] | 15 | 0.65 | 1.0 |
| Ac-[D-Pro24, Abu26, Cha27,36, Aib28,31, Lys30]-PYY(23-36) (Ac-S[dP]R[Abu][Cha][Aib]NK[Aib]TRQR[Cha]-NH2; SMILES CC[C@H](NC(=O)[C@H](CCCNC(=N)N)NC(=O)[C@H]1CCCN1C(=O)[C@H](CO)NC(C)=O)C(=O)N[C@@H](CC1CCCCC1)C(=O)NC(C)(C)C(=O)N[C@@H](CC(N)=O)C(=O)N[C@@H](CCCCN)C(=O)NC(C)(C)C(=O)N[C@H](C(=O)N[C@@H](CCCNC(=N)N)C(=O)N[C@@H](CCC(N)=O)C(=O)N[C@@H](CCCNC(=N)N)C(=O)N[C@@H](CC1CCCCC1)C(N)=O)[C@@H](C)O) [compound No. 320] | 18 | 2.3 | 0.98 |
| Ac-[D-Hyp24, Iva25,28, Pya(4)26, Cha27,36, Lys30, Aib31]-PYY(23-36) (Ac-S[dHyp][Iva][4Pal][Cha][Iva]NK[Aib]TRQR[Cha]-NH2; ends and bridges not checked) [compound No. 298] | 56 | 0.86 | 1.0 |
| Ac-[D-Pro24, Pya(4)26, Cha27,36, Iva28, Lys30, Aib31]-PYY(23-36) (Ac-S[dP]R[4Pal][Cha][Iva]NK[Aib]TRQR[Cha]-NH2; SMILES CC[C@](C)(NC(=O)[C@H](CC1CCCCC1)NC(=O)[C@H](Cc1ccncc1)NC(=O)[C@H](CCCNC(=N)N)NC(=O)[C@H]1CCCN1C(=O)[C@H](CO)NC(C)=O)C(=O)N[C@@H](CC(N)=O)C(=O)N[C@@H](CCCCN)C(=O)NC(C)(C)C(=O)N[C@H](C(=O)N[C@@H](CCCNC(=N)N)C(=O)N[C@@H](CCC(N)=O)C(=O)N[C@@H](CCCNC(=N)N)C(=O)N[C@@H](CC1CCCCC1)C(N)=O)[C@@H](C)O) [compound No. 233] | 36 | 0.33 | 1.2 |
| 4-Imidazolecarbonyl-[D-Pro24, Pya(4)26, Cha27,36, Aib28,31, Lys30]-PYY(23-36) (Imidazole4carbonyl-S[dP]R[4Pal][Cha][Aib]NK[Aib]TRQR[Cha]-NH2; SMILES C[C@@H](O)[C@H](NC(=O)C(C)(C)NC(=O)[C@H](CCCCN)NC(=O)[C@H](CC(N)=O)NC(=O)C(C)(C)NC(=O)[C@H](CC1CCCCC1)NC(=O)[C@H](Cc1ccncc1)NC(=O)[C@H](CCCNC(=N)N)NC(=O)[C@H]1CCCN1C(=O)[C@H](CO)NC(=O)c1cnc[nH]1)C(=O)N[C@@H](CCCNC(=N)N)C(=O)N[C@@H](CCC(N)=O)C(=O)N[C@@H](CCCNC(=N)N)C(=O)N[C@@H](CC1CCCCC1)C(N)=O) [compound No. 213] | 33 | 0.76 | 1.1 |
| 4-Pyridinecarbonyl-[D-Hyp24, Iva25, Pya(4)26, Cha27,36, Leu(Me)28, Lys30, Aib31]-PYY(23-36) (Isonicotinoyl-S[dHyp][Iva][4Pal][Cha][tBuAla]NK[Aib]TRQR[Cha]-NH2; SMILES CC[C@](C)(NC(=O)[C@H]1C[C@H](O)CN1C(=O)[C@H](CO)NC(=O)c1ccncc1)C(=O)N[C@@H](Cc1ccncc1)C(=O)N[C@@H](CC1CCCCC1)C(=O)N[C@@H](CC(C)(C)C)C(=O)N[C@@H](CC(N)=O)C(=O)N[C@@H](CCCCN)C(=O)NC(C)(C)C(=O)N[C@H](C(=O)N[C@@H](CCCNC(=N)N)C(=O)N[C@@H](CCC(N)=O)C(=O)N[C@@H](CCCNC(=N)N)C(=O)N[C@@H](CC1CCCCC1)C(N)=O)[C@@H](C)O) [compound No. 333] | 28 | 0.93 | 1.6 |
| Ac-[Glu23, D-Pro24, Iva25, Pya(4)26, Cha27,36, Aib28,31, Lys30]-PYY(23-36) (Ac-E[dP][Iva][4Pal][Cha][Aib]NK[Aib]TRQR[Cha]-NH2; SMILES CC[C@](C)(NC(=O)[C@H]1CCCN1C(=O)[C@H](CCC(=O)O)NC(C)=O)C(=O)N[C@@H](Cc1ccncc1)C(=O)N[C@@H](CC1CCCCC1)C(=O)NC(C)(C)C(=O)N[C@@H](CC(N)=O)C(=O)N[C@@H](CCCCN)C(=O)NC(C)(C)C(=O)N[C@H](C(=O)N[C@@H](CCCNC(=N)N)C(=O)N[C@@H](CCC(N)=O)C(=O)N[C@@H](CCCNC(=N)N)C(=O)N[C@@H](CC1CCCCC1)C(N)=O)[C@@H](C)O) [compound No. 322] | 31 | 6.1 | 2.8 |
| Ac-[D-Pro24, Arg(Me)25, Pya(4)26, Cha27,36, Aib28,31, Lys30]-PYY(23-36) [compound No. 319] | 40 | 1.1 | 1.3 |
| [(1S)-1-Carboxy-2-(4-hydroxyphenyl)ethyl]carbamoyl-[D-Pro24, Pya(4)26, Cha27,36, Aib28,31, Lys30]-PYY(23-36) (X1-S[dP]R[4Pal][Cha][Aib]NK[Aib]TRQR[Cha]-NH2; SMILES C[C@@H](O)[C@H](NC(=O)C(C)(C)NC(=O)[C@H](CCCCN)NC(=O)[C@H](CC(N)=O)NC(=O)C(C)(C)NC(=O)[C@H](CC1CCCCC1)NC(=O)[C@H](Cc1ccncc1)NC(=O)[C@H](CCCNC(=N)N)NC(=O)[C@H]1CCCN1C(=O)[C@H](CO)NC(=O)N[C@@H](Cc1ccc(O)cc1)C(=O)O)C(=O)N[C@@H](CCCNC(=N)N)C(=O)N[C@@H](CCC(N)=O)C(=O)N[C@@H](CCCNC(=N)N)C(=O)N[C@@H](CC1CCCCC1)C(N)=O) [compound No. 285] | 28 | 0.95 | 1.2 |
| [(1S)-1-Carboxy-3-methylbutyl]carbamoyl-[Glu23, D-Pro24, Pya(4)26, Cha27,36, Aib28,31, Lys30]-PYY(23-36) (X4-E[dP]R[4Pal][Cha][Aib]NK[Aib]TRQR[Cha]-NH2; SMILES CC(C)C[C@H](NC(=O)N[C@@H](CCC(=O)O)C(=O)N1CCC[C@@H]1C(=O)N[C@@H](CCCNC(=N)N)C(=O)N[C@@H](Cc1ccncc1)C(=O)N[C@@H](CC1CCCCC1)C(=O)NC(C)(C)C(=O)N[C@@H](CC(N)=O)C(=O)N[C@@H](CCCCN)C(=O)NC(C)(C)C(=O)N[C@H](C(=O)N[C@@H](CCCNC(=N)N)C(=O)N[C@@H](CCC(N)=O)C(=O)N[C@@H](CCCNC(=N)N)C(=O)N[C@@H](CC1CCCCC1)C(N)=O)[C@@H](C)O)C(=O)O) [compound No. 283] | 18 | 2.2 | 2.5 |
| (Tetrahydro-2H-pyran-4-yl)carbonyl-[D-Pro24, Iva25, Pya(4)26, Cha27,36, Aib28,31, Lys30]-PYY(23-36) (Tetrahydropyran4carbonyl-S[dP][Iva][4Pal][Cha][Aib]NK[Aib]TRQR[Cha]-NH2; SMILES CC[C@](C)(NC(=O)[C@H]1CCCN1C(=O)[C@H](CO)NC(=O)C1CCOCC1)C(=O)N[C@@H](Cc1ccncc1)C(=O)N[C@@H](CC1CCCCC1)C(=O)NC(C)(C)C(=O)N[C@@H](CC(N)=O)C(=O)N[C@@H](CCCCN)C(=O)NC(C)(C)C(=O)N[C@H](C(=O)N[C@@H](CCCNC(=N)N)C(=O)N[C@@H](CCC(N)=O)C(=O)N[C@@H](CCCNC(=N)N)C(=O)N[C@@H](CC1CCCCC1)C(N)=O)[C@@H](C)O) [compound No. 342] | 36 | 3.3 | 1.9 |
